Assay [1] deals with T1, Feline EPOR201_ECD_human Fc (feline EPOR fused to human Fc, biotinylated with EZ-Link NHS-LC-biotin).
T1 construct: also called fEPOR201_ECD-Fc; feline EPOR201-ECD-Fc
Kind of assay: biolayer interferometry (ForteBio); biotinylated receptor-Fc on streptavidin tips, EPO analog 150-1.9 nM, 1:1 fit. How it is done:
(§1) The binding analysis was performed as follows. Briefly, fEPOR201_ECD-Fc and fEPOR202_ECD-Fc were biotinylated using EZ-Link NHS-LC-biotin (Catalog No. 21336, Thermo Scientific). The free unreacted biotin was removed by dialysis. Biotinylated fEPOR201_ECD-Fc and fEPOR202_ECD-Fc were captured on streptavidin sensor tips (Catalog No. 18-509, ForteBio).
(§2) Dissociation was monitored for 600 seconds. A buffer only blank curve was subtracted to correct for any drift. The data were fit to a 1:1 binding model using ForteBio™ data analysis software to determine the kₒₙ (association rate constant), koff (dissociation rate constant) and the Kd (dissociation constant). […] The buffer for dilutions and all binding steps was: 200 mM phosphate, 150 mM NaCl, 0.02% Tween-20, 0.05% sodium azide, and 0.1 mg BSA, pH7.4.

The target of assay [2] is T2, Feline EPOR202_ECD_human Fc (feline EPOR fused to human Fc, biotinylated with EZ-Link NHS-LC-biotin).
T2 construct: also called fEPOR202_ECD-Fc; feline EPOR202-ECD-Fc
The description is as above. How it is done:
as §1, §2

Assay [3] addresses T3, human EPOR-Fc (Catalog No. 963-ER-050, R&D Systems) (human, UniProt P19235 25-250, biotinylated in Example 10 only).
T3 construct: extracellular domain; treated as one molecule; also called extracellular domain of human EPOR; human EPO receptor; not shown: Fc part of the bought EPOR-Fc
T3 sequence (looked up): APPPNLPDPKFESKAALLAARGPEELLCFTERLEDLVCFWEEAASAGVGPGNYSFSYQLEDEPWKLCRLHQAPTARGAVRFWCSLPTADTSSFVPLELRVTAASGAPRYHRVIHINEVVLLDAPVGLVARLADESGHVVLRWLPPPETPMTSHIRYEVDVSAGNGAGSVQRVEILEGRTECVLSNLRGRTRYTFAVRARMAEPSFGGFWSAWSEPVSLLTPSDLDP
Kind of assay: biolayer interferometry (ForteBio); biotinylated human EPOR on streptavidin tips, EPO analog 20-0.25 nM, 1:1 fit. The source says:
Dissociation was monitored for 600 seconds. A buffer only blank curve was subtracted to correct for any drift.

A further assay deals with T4, human EPOR on TF-1 cells (human, UniProt P19235 25-508).
T4 sequence (looked up): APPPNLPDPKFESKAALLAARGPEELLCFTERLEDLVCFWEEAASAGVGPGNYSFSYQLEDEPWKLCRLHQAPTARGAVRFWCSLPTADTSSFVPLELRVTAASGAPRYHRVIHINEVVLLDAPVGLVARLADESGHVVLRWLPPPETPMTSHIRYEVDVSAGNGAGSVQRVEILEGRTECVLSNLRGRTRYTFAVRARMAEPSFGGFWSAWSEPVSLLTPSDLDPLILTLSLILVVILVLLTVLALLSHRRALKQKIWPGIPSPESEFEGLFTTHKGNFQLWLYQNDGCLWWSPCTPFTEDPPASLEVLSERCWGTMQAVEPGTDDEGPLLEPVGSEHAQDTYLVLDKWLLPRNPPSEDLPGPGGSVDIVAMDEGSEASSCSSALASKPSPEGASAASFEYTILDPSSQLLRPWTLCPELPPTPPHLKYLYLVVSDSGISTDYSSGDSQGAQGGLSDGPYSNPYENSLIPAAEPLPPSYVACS
Kind of assay: cell-based or functional assay.

The target in assay [4] is T5, Feline EPOR203_39A_ECD_Fc (feline EPOR fused to human Fc).
T5 construct: also called feline EPOR203-ECD-Fc; fEPOR203_ECD-Fc
Kind of assay: sandwich ELISA: plate coated with anti-human EPO antibody, Analog 6-30 EV Mature captured in 2-fold dilutions from 500 ng/mL, feline EPOR203_39A_ECD_Fc added at 200 ng/mL, detected with anti-human Fc HRP; 4-parameter fit. The axis 'Conc' prints no unit; ng/mL is from paragraph 333. How it is done: Feline EPOR203_39A_ECD_Fc (200 ng/mL in 1% BSA-PBST buffer) was added to each well and binding allowed to proceed for 1 hour at room temperature. A rabbit anti-human Fc antibody and horseradish peroxidase (HRP) conjugate (0.2 μg/mL) was used for detection and left in the wells for 1 hour at room temperature. 3,3,5,5′-Tetramethylbenzidine (TMB) was applied to the wells as the HRP substrate and kept in the well for 5 to 7 minutes for signal development.

Assay [5] addresses T3, human EPOR-Fc (Catalog No. 963-ER-050, …). The assay is described as follows: ELISA 1: EPO analog captured by mouse anti-EPO antibody (MAB287), human EPOR-Fc at 200 ng/mL, anti-human Fc HRP. How it is done: (§3) A 96-well plate was coated with a mouse anti-EPO specific antibody (Catalog No. MAB287, clone 9C21D11, R&D Systems) to capture the EPO polypeptides. The EPO-bound wells were incubated with human EPOR-Fc at a concentration of 200 ng/mL and the bound EPOR was detected by anti-human Fc HRP conjugated antibody. The ELISA was performed a second time, but the three samples of EPO polypeptides were first treated with neuraminidase to remove the sialic acid.

Assay [6] has the same target. The assay is described as follows: ELISA 2: as ELISA 1, EPO sample treated with neuraminidase first. How it is done: as §3

The values below come from patent publication US20210032305A1 (KINDRED BIOSCIENCES, published 2021).

T5 sequence (chain, as listed by the source limits assumed): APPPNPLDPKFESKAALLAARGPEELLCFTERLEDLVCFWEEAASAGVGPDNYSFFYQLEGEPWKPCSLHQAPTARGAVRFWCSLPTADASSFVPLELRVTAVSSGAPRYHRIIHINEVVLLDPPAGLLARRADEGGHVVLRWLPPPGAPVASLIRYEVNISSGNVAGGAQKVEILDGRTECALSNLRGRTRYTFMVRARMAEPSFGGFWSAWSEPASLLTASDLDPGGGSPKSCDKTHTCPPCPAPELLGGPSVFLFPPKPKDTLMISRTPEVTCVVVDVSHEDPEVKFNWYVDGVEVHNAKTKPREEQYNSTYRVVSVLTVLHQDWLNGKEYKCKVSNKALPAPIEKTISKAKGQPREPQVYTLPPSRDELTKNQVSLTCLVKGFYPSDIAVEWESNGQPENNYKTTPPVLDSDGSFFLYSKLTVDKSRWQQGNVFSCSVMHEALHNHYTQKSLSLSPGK
T2 sequence (chain, as listed by the source limits assumed): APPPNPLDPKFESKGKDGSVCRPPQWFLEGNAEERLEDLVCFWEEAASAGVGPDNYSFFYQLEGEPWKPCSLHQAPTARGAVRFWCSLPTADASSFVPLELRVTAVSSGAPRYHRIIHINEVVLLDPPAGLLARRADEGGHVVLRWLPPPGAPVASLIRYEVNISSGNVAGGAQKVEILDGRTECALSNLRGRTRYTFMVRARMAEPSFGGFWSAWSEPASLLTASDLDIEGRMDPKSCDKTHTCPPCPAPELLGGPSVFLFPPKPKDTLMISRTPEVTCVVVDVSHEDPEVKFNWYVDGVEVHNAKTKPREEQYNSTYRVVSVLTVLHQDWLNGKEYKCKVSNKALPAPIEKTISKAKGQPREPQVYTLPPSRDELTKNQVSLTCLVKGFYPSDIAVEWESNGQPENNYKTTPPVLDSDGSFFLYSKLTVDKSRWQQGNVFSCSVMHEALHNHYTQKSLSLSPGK
T1 sequence (chain, as listed by the source limits assumed): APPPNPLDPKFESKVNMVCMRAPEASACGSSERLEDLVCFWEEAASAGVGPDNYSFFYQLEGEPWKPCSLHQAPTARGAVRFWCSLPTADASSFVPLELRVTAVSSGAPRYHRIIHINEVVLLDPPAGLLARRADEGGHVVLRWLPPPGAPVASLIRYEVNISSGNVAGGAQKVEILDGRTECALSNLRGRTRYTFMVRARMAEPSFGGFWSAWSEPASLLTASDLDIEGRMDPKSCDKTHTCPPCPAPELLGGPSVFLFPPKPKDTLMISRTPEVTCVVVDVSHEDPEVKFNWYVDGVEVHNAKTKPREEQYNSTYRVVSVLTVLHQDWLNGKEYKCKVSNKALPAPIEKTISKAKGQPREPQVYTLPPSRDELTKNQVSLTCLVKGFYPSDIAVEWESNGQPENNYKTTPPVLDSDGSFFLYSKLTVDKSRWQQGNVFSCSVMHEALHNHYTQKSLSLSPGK

B1: Feline EPO Analog 6-30 G18V87 mature form (Analog 6-30 GV Mature) (ligand)
chain: APPRLICDSRVLERYILGAREAENVTMGCNETCSFSENITVPDTKVNFYTWKRMDVGQQAVEVWQGLALLSEAILRGQALLANSSQVNETLQLHVDKAVSSLRSLTSLLRALGAQKEATSLPEATSAAPLRTFTVDTLCKLFRIYSNFLRGKLTLYTGEACRRGDR
modifications: N-linked glycosylated and sialylated (CHO DG-44 expressed); fraction not specified in this assay
notes: also called feline EPO Analog 6-30 GV Mature
On to B1, for which the figures for the Kd in assay [1], in assay [2] and in assay [3] were 400 pM, 170 pM and 97.6 pM, respectively. The “EC50, TF-1 cell proliferation (MTT)” value in the assay with human EPOR on TF-1 cells was 0.3 IU/mL.

B2: Feline EPO Analog 6-30 E18V87 mature form (Analog 6-30 EV Mature) (ligand)
chain: APPRLICDSRVLERYILEAREAENVTMGCNETCSFSENITVPDTKVNFYTWKRMDVGQQAVEVWQGLALLSEAILRGQALLANSSQVNETLQLHVDKAVSSLRSLTSLLRALGAQKEATSLPEATSAAPLRTFTVDTLCKLFRIYSNFLRGKLTLYTGEACRRGDR
modifications: N-linked glycosylated and sialylated (CHO DG-44 expressed); fraction not specified in this assay
notes: also called Feline Analog 6-30 EV Mature; Sample 1
Turning to B2, in assay [4], the EC50 is 0.088 µg/mL. Also, in the assay with human EPOR on TF-1 cells, the “EC50, TF-1 cell proliferation (MTT)” value came out at 0.00478 µg/mL.

B3: Analog 6-30 GV Mature (basic fraction) (ligand)
chain: APPRLICDSRVLERYILGAREAENVTMGCNETCSFSENITVPDTKVNFYTWKRMDVGQQAVEVWQGLALLSEAILRGQALLANSSQVNETLQLHVDKAVSSLRSLTSLLRALGAQKEATSLPEATSAAPLRTFTVDTLCKLFRIYSNFLRGKLTLYTGEACRRGDR
modifications: N-linked glycosylated; low sialylation, isoelectric point range of about 4 to about 5 (Example 15), about 3.5 to about 5 (Example 6)
notes: Same polypeptide as m1; glycoform fraction; In ELISA 2 it was treated with neuraminidase first; also called basic (low sialylation) fraction of Analog 6-30 GV Mature
B3: the EC50 in assay [5] came to 0.035 µg/mL; in assay [6] it was 0.031 µg/mL.

B4: Analog 6-30 GV Mature (acidic fraction) (ligand)
chain: APPRLICDSRVLERYILGAREAENVTMGCNETCSFSENITVPDTKVNFYTWKRMDVGQQAVEVWQGLALLSEAILRGQALLANSSQVNETLQLHVDKAVSSLRSLTSLLRALGAQKEATSLPEATSAAPLRTFTVDTLCKLFRIYSNFLRGKLTLYTGEACRRGDR
modifications: N-linked glycosylated; high sialylation, isoelectric point range of about 2 to about 3.5
notes: Same polypeptide as m1; glycoform fraction; In ELISA 2 it was treated with neuraminidase first; also called acidic (high sialylation) fraction of Analog 6-30 GV Mature
B4: the concentration giving a half-maximal response (EC50) in assay [5] amounted to 0.1 µg/mL; in assay [6] it was 0.018 µg/mL.

B5: Analog 6-30 EV Mature (acidic fraction) (ligand)
chain: APPRLICDSRVLERYILEAREAENVTMGCNETCSFSENITVPDTKVNFYTWKRMDVGQQAVEVWQGLALLSEAILRGQALLANSSQVNETLQLHVDKAVSSLRSLTSLLRALGAQKEATSLPEATSAAPLRTFTVDTLCKLFRIYSNFLRGKLTLYTGEACRRGDR
modifications: N-linked glycosylated; high sialylation (acidic fraction)
notes: Same polypeptide as m4; glycoform fraction; In ELISA 2 it was treated with neuraminidase first; also called acidic (high sialylation) fraction of Analog 6-30 EV Mature
For the molecule B5, the EC50 in assay [5] stood at 0.045 µg/mL; in assay [6] it was 0.02 µg/mL.
